Assay results published in patent US20210338751A1 (LUMEN BIOSCIENCE, published 2021).

B1: 5D+E3+7F (other)
VHH 5D: QVQLVESGGGLVQPGGSLRLSCEASGFTLDYYGIGWFRQPPGKEREAVSYISASARTILYADSVKGRFTISRDNAKNAVYLQMNSLKREDTAVYYCARRRFSASSVNRWLADDYDVWGRGTQVAVSSEPKTPKPQ
VHH E3: QVQLVESGGGLVQTGGSLRLSCASSGSIAGFETVTWSRQAPGKSLQWVASMTKTNNEIYSDSVKGRFIISRDNAKNTVYLQMNSLKPEDTGVYFCKGPELRGQGIQVTVSSEPKTPKPQ
VHH 7F: DVQLQASGGGLVQAGGSLRLSCVASARTFSSYAMGWFRQAPGKEREFVAAISWSGASTDYADSVKGRFTISRDNAKKTVYLQMNTLKPEDTAVYYCAAHHITPTGSYYYSEPLPVDMVYDYWGQGTQVTVSSEPKTKTTTSGR
B2: 5D+E3+2D (other)
VHH 5D: B1 VHH 5D
VHH E3: B1 VHH E3
VHH 2D: QVKLQQSGGGLVQAGGSLRLSCAASGTFSRYAMGWFRQAPGKEREFVAAINWTGGSTYYADSVKGRFTISGDNAKNTVYLQMNSLKPGDTAVYYCAAEVHPGDYGLTYMQSQYEYDYWGQGTQVTVSSEPKTPKPTTSGR
B3: E3+7F+2D (other)
VHH E3: B1 VHH E3
VHH 7F: B1 VHH 7F
VHH 2D: B2 VHH 2D
B4: 5D+7F+5E (other)
VHH 5D: B1 VHH 5D
VHH 7F: B1 VHH 7F
VHH 5E: VQLVESGGGLVQAGGSLRLSCAASGLMFGAMTMGWYRQAPGKEREMVAYITAGGTESYSESVKGRFTISRINANNMVYLQMTNLKVEDTAVYYCNAHNFWRTSRNWGQGTQVTVSSEPKTPKP
B5: Nano94-TxnA (VHH)
VHH: QVQLQESGGGLVQAGGSLRLSCAASGRMFSINSMGWYRQAPGKERELVATISEAGTTTYADSVRGRFTIARDNAKNTVYLQMNSLNPEDTAVYYCNAYIQLDSTIWFRAYWGQGTQVTVSS
notes: also called SP835
B6: Nano94-MBP (VHH)
VHH: B5 VHH
notes: also called SP836
B7: Nano26-MBP (VHH, not shown: large carriers)
VHH: QVQLQESGGGLVQPGGSLRLSCTAPRIIFFMYDVGWYRQAPEKQRELVAQINSDVSTKYADSVKGRFTISRDNAKRTVYLQMNDLKPEDAAVYYCNVRRASADYWGQGTQVTVSS
notes: also called SP834
B8: anti-TcdB VHH 5D (VHH)
VHH: QVQLVESGGGLVQPGGSLRLSCEASGFTLDYYGIGWFRQPPGKEREAVSYISASARTILYADSVKGRFTISRDNAKNAVYLQMNSLKREDTAVYYCARRRFSASSVNRWLADDYDVWGRGTQVAVSS
B9: anti-TcdB VHH E3 (VHH)
VHH: B1 VHH E3
B10: anti-TcdB VHH 7F (VHH)
VHH: QVQLVESGGGLVEAGGSLRLSCVVTGSSFSTSTMAWYRQPPGKQREWVASFTSGGAIKYTDSVKGRFTMSRDNAKKMTYLQMENLKPEDTAVYYCALFINAVSGSSWGRGTQVTVSS
B11: anti-TcdB VHH B12 (VHH)
VHH: VQLVESGGGLVQAGDSLTLSCAASESTFNTFSMAWFRQAPGKEREYVAAFSRSGGTTNYADSVKGRATISTDNAKNTVYLHMNSLKPEDTAVYFCAADRPAGRAYFQSRSYNYWGQGTQVTVSS
B12: anti-TcdB VHH C6 (VHH)
VHH: VQLVESGGGLVQAGESLRLSCVVSESIFRINTMGWYRQTPGKQREVVARITLRNSTTYADSVKGRFTISRDDAKNTLYLKMDSLKPEDTAVYYCHRYPLIFRNSPYWGQGTQVTVSS

Key:
[1] = molecular target: T1, Clostridium difficile toxin B (TcdB) (Clostridium difficile, UniProt P18177 2-2366); test: cell-based or functional assay
[2] = molecular target: T2, recombinant HuNoV GI.1 P domain (Human Norovirus (HuNoV) GI.1); test: ELISA on recombinant HuNoV GI.1 P domain, Spirulina-expressed Ni-NTA purified protein after freeze-drying
T2 construct: domain: Protrusion (P) domain

[3] = molecular target: T2, recombinant HuNoV GI.1 P domain; test: ELISA on recombinant GI.1 P domain
GI.1 VLPs = molecular target: T3, GI.1 VLPs (human norovirus genotype GI.1); test: blocking of GI.1 VLP binding to pig gastric mucin (HBGA)
T3 construct: virus-like particle

[4] = molecular target: T2, recombinant HuNoV GI.1 P domain; test: ELISA on recombinant HuNoV GI.1 P domain, Spirulina-expressed Ni-NTA purified protein stored at 4 C
[5] = molecular target: T4, recombinant HuNoV GII.10 P domain (Human Norovirus (HuNoV) GII.10); test: ELISA on recombinant HuNoV GII.10 P domain, Spirulina-expressed Ni-NTA purified protein stored at 4 C
T4 construct: domain: Protrusion (P) domain

[6] = molecular target: T5, recombinant HuNoV GII.2 P domain (Human Norovirus (HuNoV) GII.2); test: BLI, biotin tagged GII.2 P domain at 100 nM as antigen
T5 construct: domain: Protrusion (P) domain

[7] = molecular target: T4, recombinant HuNoV GII.10 P domain; test: ELISA on recombinant HuNoV GII.10 P domain, Spirulina-expressed Ni-NTA purified protein after freeze-drying
[8] = molecular target: T1, Clostridium difficile toxin B (TcdB); test: method not stated
[9] = molecular target: T1, Clostridium difficile toxin B (TcdB); test: assay not given; unlabelled list of VHH names and values at the right of the sheet, the same values stand under KD in Table 6 of the text, which prints the unit of 5D as mM

Row | Binder | Adherence Score at TcdB 0.00001 ng/ml, VHH 100 ng/ml total; none: 7 [1] | Adherence Score at TcdB 0.0001 ng/ml, VHH 100 ng/ml total; none: 7 [1] | Adherence Score at TcdB 0.001 ng/ml, VHH 100 ng/ml total; none: 6 [1] | Adherence Score at TcdB 0.01 ng/ml, VHH 100 ng/ml total; none: 5 [1] | Adherence Score at TcdB 0.1 ng/ml, VHH 100 ng/ml total; none: 2 [1] | Adherence Score at TcdB 1 ng/ml, VHH 100 ng/ml total; none: 1 [1] | Adherence Score at TcdB 10 ng/ml, VHH 100 ng/ml total; none: 1 [1] | Kd [8] [nM] | further results
1 | B1 | 7 | 7 | 7 | 7 | 7 | 7 | 3 | – | –
2 | B2 | 7 | 7 | 7 | 7 | 7 | 6.1 | 2.1 | – | –
3 | B3 | 7 | 7 | 7 | 7 | 6 | 4 | 1 | – | –
4 | B4 | 7 | 7 | 7 | 7 | 7 | 4 | 1 | – | –
5 | B5 | – | – | – | – | – | – | – | – | EC50 [2]: 36.7 nM; EC50 [3]: 50.1 nM; IC50 (read off the curve) (GI.1 VLPs): ~2 µg/mL; EC50 [4]: 27.3 nM
6 | B6 | – | – | – | – | – | – | – | – | IC50 (read off the curve) (GI.1 VLPs): ~2 µg/mL
7 | B7 | – | – | – | – | – | – | – | – | EC50 [5]: 2.75 nM; Kd [6]: 21.9 nM; kon [6]: 172000 M⁻¹ s⁻¹; EC50 [7]: 2.29 nM
8 | B8 | – | – | – | – | – | – | – | 0.65 | Kd [9]: 0.65 nM
9 | B9 | – | – | – | – | – | – | – | 0.03 | –
10 | B10 | – | – | – | – | – | – | – | 8.8 | –
11 | B11 | – | – | – | – | – | – | – | 0.07 | –
12 | B12 | – | – | – | – | – | – | – | 0.89 | –
